{"source": "paper PMC10053881", "about": "(Pharmaceutics, 2023)", "tested_on": "gastric NET with lymph node and hepatic metastases", "assay": "PET/CT imaging in a NET patient", "type": "in vivo, human", "details": "[68Ga]Ga-DOTA-NOC 1 h pi, [68Ga]Ga-DATA5m-LM4 10 min–3 h pi", "description": "After a preceding PET/CT imaging with [^68Ga]Ga-DOTA-NOC ([^68Ga]Ga-DOTA-[1-Nal^3]octreotide), the patient underwent first PET/CT with [^68Ga]Ga-DATA^5m-LM4 on a dedicated GE Discovery 710 × 128 Slice PET/CT Scanner (GE HealthCare Technologies Inc.,/GE Healthcare, Chicago, IL, USA), with a 40 mm detector at a 0.35 s rotation speed and a 128-slice CT scanner. The images were corrected for random and scatter counts, decay correction and dead time correction. PET images were reconstructed with iterative reconstruction using ordered subset expectation maximization algorithm (OSEM) (2 iterations, 24 subsets). They were processed and analyzed with a dedicated commercially available workstation (GE Xeleris). Further details on the patient preparation, scan and data acquisition protocol are included in the Supplementary Materials.\nRadiosynthesis of [68Ga]Ga-DATA5m-LM4 and [177Lu]Lu-AAZTA5-LM4 for Patient […]\nFor radiolabeling of DATA5m-LM4 with Ga-68, [68Ga]GaCl3 (200 MBq) obtained from a commercial [68Ge]Ge/[68Ga]Ga-generator (ITM Isotope Technologies Munich SE, Garching, Germany) was added in a vial containing a solution of DATA5m-LM4 (50 µg, 32.5 nmol) in 500 µL of 1 M sodium acetate buffer pH 4.5. The reaction mixture was heated for 15 min at 95 °C, affording [68Ga]Ga-DATA5m-LM4 in a radiochemical purity […]", "note": "“Also recorded” adds a separate entry of the source."}
{"substance": "[^68Ga]Ga-DOTA-[1-Nal^3]octreotide [[^68Ga]Ga-DOTA-NOC]", "values": [{"measurement": "uptake in liver metastases on PET/CT", "value": "mild to negligible uptake; also recorded: weak uptake"}]}
